What was measured:
[1] = target: T1, mouse APC2 fused to the Gal4 DNA-binding domain (yeast; mouse, UniProt P04386 1-147; Q8BZQ7 15-837, limits assumed); experiment: yeast two-hybrid, -LWH with 5 mM 3-AT
T1 construct: also called GAL4BD-APC2

myc-epitope tagged APC2 = myc-epitope tagged APC2 (mouse, UniProt Q8BZQ7 15-837); experiment: co-immunoprecipitation from transfected HeLa cells
[2] = target: human ROC1 (untagged: in vitro translated or endogenous in HeLa and Saos-2 cells) (human, UniProt P62877 1-108); experiment: anti-ROC1 immunopurification from HeLa lysate, microsequencing of co-precipitated 70 to 120 kDa proteins
[3] = target: CDC53 fused to the Gal4 DNA binding domain (pGBT8-CDC53) (yeast; S. cerevisiae, UniProt P04386 1-147; Q12018 1-815); experiment: yeast two-hybrid
Description: (§1) The yeast genome contains four cullin members, CDC53, CUL-B (ORF YGR003w), CUL-C(ORF YJL047c) and APC2. Each gene was fused in-frame with the Gal4 DNA binding domain and co-transformed with ScROC1 or ScAPC11 fused in-frame with the GAL4 activation domain. ScAPC2 was self-activating as a bait and was fused in-framed with the GAL4 activation domain and tested with ScROC1 fused in-frame with the DNA binding domain.

[4] = target: CUL-B (ORF YGR003w) fused to the Gal4 DNA binding domain (yeast; S. cerevisiae, UniProt P04386 1-147; P53202 1-744); experiment: yeast two-hybrid
Description: as §1

[5] = target: T2, HA-epitope tagged human ROC1 (human, UniProt P62877 1-108); experiment: co-immunoprecipitation with anti-HA from [35S]-methionine labelled transfected cells
T2 construct: Expressed by transfection in mammalian cells; tag written first because of the name HA-ROC1; also called HA-ROC1
T2 sequence (P62877 whole entry): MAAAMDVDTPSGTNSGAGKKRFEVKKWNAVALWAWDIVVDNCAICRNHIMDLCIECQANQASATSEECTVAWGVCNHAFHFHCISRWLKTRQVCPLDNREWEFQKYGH

Chain of human ROC1 (untagged: in vitro translated or endogenous in HeLa and Saos-2 cells) (P62877 whole entry, the tested form may be a part): as the sequence (P62877 whole entry) above
Chain of myc-epitope tagged APC2 (Q8BZQ7 15-837): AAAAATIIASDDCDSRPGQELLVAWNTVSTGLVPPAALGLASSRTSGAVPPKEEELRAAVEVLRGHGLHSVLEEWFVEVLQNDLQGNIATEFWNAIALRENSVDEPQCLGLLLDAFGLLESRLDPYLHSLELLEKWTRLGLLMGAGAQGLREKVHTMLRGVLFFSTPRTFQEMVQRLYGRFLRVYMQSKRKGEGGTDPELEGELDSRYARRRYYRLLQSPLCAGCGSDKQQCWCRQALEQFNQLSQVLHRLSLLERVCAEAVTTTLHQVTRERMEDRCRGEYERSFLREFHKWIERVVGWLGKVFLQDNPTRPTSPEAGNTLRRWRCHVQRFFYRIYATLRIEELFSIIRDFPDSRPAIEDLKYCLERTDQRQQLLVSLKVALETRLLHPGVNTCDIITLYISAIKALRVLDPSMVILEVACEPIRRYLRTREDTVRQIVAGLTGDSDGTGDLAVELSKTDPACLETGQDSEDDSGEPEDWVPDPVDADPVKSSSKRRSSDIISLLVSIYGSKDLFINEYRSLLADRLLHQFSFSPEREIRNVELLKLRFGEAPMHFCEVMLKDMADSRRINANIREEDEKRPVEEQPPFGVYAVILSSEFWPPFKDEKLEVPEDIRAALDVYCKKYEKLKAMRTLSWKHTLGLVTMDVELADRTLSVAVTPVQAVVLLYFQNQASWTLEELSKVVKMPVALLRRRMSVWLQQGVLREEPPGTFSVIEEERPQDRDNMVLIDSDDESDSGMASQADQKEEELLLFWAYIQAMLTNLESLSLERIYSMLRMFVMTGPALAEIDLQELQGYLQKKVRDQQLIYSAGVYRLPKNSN

B1: full length human ROC2 fused to the Gal4 DNA activation domain (other, not shown: large carriers)
chain: MFSLKKWNPVAMWSWDVECDTCAICRVQVMDACLRCQAENKQEDCVVVWGECNHSFHNCCMSLWVKQNNRCPLCQQDWVVQRIGK
notes: Yeast two-hybrid prey
binding result [1]: no binding

B2: HA tagged human ROC2 (other, not shown: small tags and cut ends)
chain: B1 chain
notes: Migrates as a doublet in transfected cells; also called HA-ROC2
binding result (myc-epitope tagged APC2): no binding

B3: human CUL2 (endogenous in HeLa cells) (other, UniProt Q13617 1-745, looked up)
chain: MSLKPRVVDFDETWNKLLTTIKAVVMLEYVERATWNDRFSDIYALCVAYPEPLGERLYTETKIFLENHVRHLHKRVLESEEQVLVMYHRYWEEYSKGADYMDCLYRYLNTQFIKKNKLTEADLQYGYGGVDMNEPLMEIGELALDMWRKLMVEPLQAILIRMLLREIKNDRGGEDPNQKVIHGVINSFVHVEQYKKKFPLKFYQEIFESPFLTETGEYYKQEASNLLQESNCSQYMEKVLGRLKDEEIRCRKYLHPSSYTKVIHECQQRMVADHLQFLHAECHNIIRQEKKNDMANMYVLLRAVSTGLPHMIQELQNHIHDEGLRATSNLTQENMPTLFVESVLEVHGKFVQLINTVLNGDQHFMSALDKALTSVVNYREPKSVCKAPELLAKYCDNLLKKSAKGMTENEVEDRLTSFITVFKYIDDKDVFQKFYARMLAKRLIHGLSMSMDSEEAMINKLKQACGYEFTSKLHRMYTDMSVSADLNNKFNNFIKNQDTVIDLGISFQIYVLQAGAWPLTQAPSSTFAIPQELEKSVQMFELFYSQHFSGRKLTWLHYLCTGEVKMNYLGKPYVAMVTTYQMAVLLAFNNSETVSYKELQDSTQMNEKELTKTIKSLLDVKMINHDSEKEDIDAESSFSLNMNFSSKRTKFKITTSMQKDTPQEMEQTRSAVDEDRKMYLQAAIVRIMKARKVLRHNALIQEVISQSRARFNPSISMIKKCIEVLIDKQYIERSQASADEYSYVA
notes: also called cullin 2
binding result [2]: binds

B4: ScAPC11 fused to the GAL4 activation domain (other, S. cerevisiae, UniProt Q12157 1-165, looked up, not shown: large carriers)
chain: MKVKINEVHSVFAWSWHIPSTSDEDAANNDPIGNDEDEDVCGICRASYNGTCPSCKFPGDQCPLVIGLCHHNFHDHCIYRWLDTPTSKGLCPMCRQTFQLQKGLAINDAHVQKFVEIVSRRREEMIEEGVAEEFVDFDEPIRQNTDNPIGRQQVDTILDEDFLLR
notes: also called yeast APC11
binding result [3]: no binding | binding result [4]: no binding

B5: myc-epitope tagged mouse cullin 4A (other, UniProt Q3TCH7 1-759, looked up, not shown: small tags and cut ends)
chain: MADEGPRKGSVSALMGRTNGLTKPAALAGGPAKPGGTGGSRKLVIKNFRDRPRLPDNYTQDTWRKLHEAVKAIQSSTSIRYNLEELYQAVENLCSHKVSPTLYKQLRQVCEDHVQAQILPFREDSLDSVLFLKKINTCWQDHCRQMIMIRSIFLFLDRTYVLQNSMLPSIWDMGLELFRNHIISDRMVQSKTIDGILLLIGRERSGEAVDRSLLRSLLSMLSDLQVYKDSFELKFLEETNCLYAAEGQRLMQDREVPEYLNHVSKRLEEEADRVITYLDHSTQKPLIACVEKQLLGEHLTAILQKGLEHLLDENRVPDLTQMYQLFSRVKGGQHALLQHWSEYIKTFGTTIVINPEKDKDMVQDLLDFKDKVDHVVEVCFQRNERFINLMKESFETFINKRPNKPAELIAKHVDSKLRAGNKEATDEELERILDKIMILFRFIHGKDVFEAFYKKDLAKRLLVGKSASVDAEKSMLSKLKHECGAAFTSKLEGMFKDMELSKDIMVHFKQHMQNQSAPGPIDLTVNILTMGYWPTYTPMEVHLPPEMVRLQEVFKTFYLGKHSGRKLQWQTTLGHAVLKADFKEGKKEFQVSLFQTLVLLMFNEGDGFSFEEIKMATGIEDSELRRTLQSLACGKARVLIKSPKGKEVEDGDKFIFNADFKHKLFRIKINQIQMKETVEEQVSTTERVFQDRQYQIDAAIVRIMKMRKTLGHNLLVSELYNQLKFPVKPGDLKKRIESLIDRDYMERDKDSPNQYHYVA
notes: also called myc-mCUL4A
binding result [5]: binds
